In patent publication US10501552B2, “Multivalent molecules comprising DR5-binding domains” (MacroGenics, Inc., priority 2015, dated 2019):

Experiments:
[1] = system: 22RV1; assay: MTS cell proliferation assay; assay type: cell-based; details: 22RV1 (Prostate); 1 μg/ml, ±10 μg/ml αmFc; two days
Procedure: (§1) Cell lines obtained from ATCC were cultured under standard tissue culture conditions. Each cell line was plated at ˜2×10^4 cells/well (in 96-well plates), and incubated overnight in F12/DMEM media supplemented with 10% FBS. […] Cell viability was determined using Promega CellTiter 96® AQeous Non-Radioactive Cell Proliferation Assay (Cat # G5430) essentially as described in the manufacturer's instructions to assay the amount of soluble formazan produced by cellular reduction of the MTS, which is a measure of the number of viable cells in the culture. Briefly, MTS/PMS regent was added to the wells and the absorbance at 490 nm (referenced at […]) was read in a Molecular Devices ThermoMax microplate reader.
(§2) Similar studies were performed over a range of anti-DR5 mAb concentrations from ˜10^−3 nM to ˜10^2 nM. The data for COLO205 cells is provided in FIG. 13, and are representative of cell lines sensitive to the antibodies of the invention.
(§3) The cytotoxicity of tetravalent DR5-Binding Molecules of the present invention was investigated. […] His-tagged TRAIL (R&D systems) was used as a positive control.
(§4) Similar studies were performed over a range of anti-DR5 mAb concentrations from ˜10^−3 nM to ˜10^2 nM.

[2] = system: 786O; assay: MTS cell proliferation assay; assay type: cell-based; details: 786O (Kidney); 1 μg/ml, ±10 μg/ml αmFc; two days
Procedure: as §1, §2, §3, §4

[3] = system: A498; assay: MTS cell proliferation assay; assay type: cell-based; details: A498 (Kidney); 1 μg/ml, ±10 μg/ml αmFc; two days
Procedure: as §1, §2, §3, §4

[4] = system: AsPC1; assay: MTS cell proliferation assay; assay type: cell-based; details: AsPC1 (Pancreas); 1 μg/ml, ±10 μg/ml αmFc; two days
Procedure: as §1, §2, §3, §4

[5] = system: BT474; assay: MTS cell proliferation assay; assay type: cell-based; details: BT474 (Breast); 1 μg/ml, ±10 μg/ml αmFc; two days
Procedure: as §1, §2, §3, §4

[6] = system: CaKi2; assay: MTS cell proliferation assay; assay type: cell-based; details: CaKi2 (Kidney); 1 μg/ml, ±10 μg/ml αmFc; two days
Procedure: as §1, §2, §3, §4

[7] = system: Calu3; assay: MTS cell proliferation assay; assay type: cell-based; details: Calu3 (Lung); 1 μg/ml, ±10 μg/ml αmFc; two days
Procedure: as §1, §2, §3, §4

[8] = system: ES2; assay: MTS cell proliferation assay; assay type: cell-based; details: ES2 (Ovary); 1 μg/ml, ±10 μg/ml αmFc; two days
Procedure: as §1, §2, §3, §4

[9] = system: HPAFII; assay: MTS cell proliferation assay; assay type: cell-based; details: HPAFII (Pancreas); 1 μg/ml, ±10 μg/ml αmFc; two days
Procedure: as §1, §2, §3, §4

[10] = system: HT29; assay: MTS cell proliferation assay; assay type: cell-based; details: HT29 (Colon); 1 μg/ml, ±10 μg/ml αmFc; two days
Procedure: as §1, §2, §3, §4

[11] = system: Hs700T; assay: MTS cell proliferation assay; assay type: cell-based; details: Hs700T (Pancreas); 1 μg/ml, ±10 μg/ml αmFc; two days
Procedure: as §1, §2, §3, §4

[12] = system: Hs746T; assay: MTS cell proliferation assay; assay type: cell-based; details: Hs746T (Stomach); 1 μg/ml, ±10 μg/ml αmFc; two days
Procedure: as §1, §2, §3, §4

[13] = system: MCF7; assay: MTS cell proliferation assay; assay type: cell-based; details: MCF7 (Breast); 1 μg/ml, ±10 μg/ml αmFc; two days
Procedure: as §1, §2, §3, §4

[14] = system: MDA-MB-175VII; assay: MTS cell proliferation assay; assay type: cell-based; details: MDA-MB-175VII (Breast); 1 μg/ml, ±10 μg/ml αmFc; two days
Procedure: as §1, §2, §3, §4

[15] = system: MDA-MB-231; assay: MTS cell proliferation assay; assay type: cell-based; details: MDA-MB-231 (Breast); 1 μg/ml, ±10 μg/ml αmFc; two days
Procedure: as §1, §2, §3, §4

[16] = system: MDA-MB-361; assay: MTS cell proliferation assay; assay type: cell-based; details: MDA-MB-361 (Breast); 1 μg/ml, ±10 μg/ml αmFc; two days
Procedure: as §1, §2, §3, §4

[17] = system: NCI-N87; assay: MTS cell proliferation assay; assay type: cell-based; details: NCI-N87 (Stomach); 1 μg/ml, ±10 μg/ml αmFc; two days
Procedure: as §1, §2, §3, §4

[18] = system: PC3; assay: MTS cell proliferation assay; assay type: cell-based; details: PC3 (Prostate); 1 μg/ml, ±10 μg/ml αmFc; two days
Procedure: as §1, §2, §3, §4

[19] = system: SKOV3; assay: MTS cell proliferation assay; assay type: cell-based; details: SKOV3 (Ovary); 1 μg/ml, ±10 μg/ml αmFc; two days
Procedure: as §1, §2, §3, §4

[20] = system: SW48; assay: MTS cell proliferation assay; assay type: cell-based; details: SW48 (Colon); 1 μg/ml, ±10 μg/ml αmFc; two days
Procedure: as §1, §2, §3, §4

[21] = system: SW948; assay: MTS cell proliferation assay; assay type: cell-based; details: SW948 (Colon); 1 μg/ml, ±10 μg/ml αmFc; two days
Procedure: as §1, §2, §3, §4

[22] = system: colon cancer tissue; assay: tissue staining with labeled molecule; assay type: binding; details: 5 μg/mL
Excerpt: (§5) The results presented in FIGS. 15A-15B, 16, and Table 10, thus indicate that a tetravalent DR5-Binding Molecule (bispecific for two epitopes of DR5) was capable of specifically binding to cancer cells.

[23] = system: lung cancer tissue; assay: tissue staining with labeled molecule; assay type: binding; details: 5 μg/mL
Excerpt: as §5

[24] = system: normal tissue (colon, liver, lung, pancreas, kidney, heart); assay: tissue staining with labeled molecule; assay type: binding; details: 5 μg/mL
Excerpt: as §5

[25] = system: 22RV1; assay: […]-GLO cell viability assay with vorinostat; assay type: cell-based; details: 22RV1 (Prostate); 1 μg/ml + 10 μM Vorinostat
[26] = system: 786O; assay: […]-GLO cell viability assay with vorinostat; assay type: cell-based; details: 786O (Kidney); 1 μg/ml + 1 μM Vorinostat

B1: DR5 mAb 1: anti-human DR5 monoclonal antibody; VL SEQ ID NO:3, VH SEQ ID NO:8 (antibody, listed as Mus musculus, V domains shown)
VH: EVKFLESGGGLVQPGGSLKLSCVASGFDFSRYWMSWVRQAPGKGLEWIGEINPDSNTINYTPSLKDKFIISRDNAKNTLYLQMTKVRSEDTALYYCTRRAYYGNPAWFAYWGQGTLVTVSS
VL: DIVLTQSPASLAVSLGQRATISCRASKSVSSSGYSYMHWYQQKPGQPPKVLIFLSSNLDSGVPARFSGSGSGTDFTLNIHPVEDGDAATYYCQHSRDLPPTFGGGTKLEIK
modifications: (1)..(121) Anti-DR5 Antibody mAb 1 Heavy Chain Variable Region; (1)..(111) Anti-DR5 Antibody mAb 1 Light Chain Variable Region
- % Inhibition (Average) [1]: 3.03%
- % Inhibition (Average) [2]: 0.91%
- % Inhibition (Average) [3]: 0.89%
- % Inhibition (Average) [4]: 1.73%
- % Inhibition (Average) [5]: 2.26%
- % Inhibition (Average) [6]: 0.55%
- % Inhibition (Average) [7]: 2.86%
- % Inhibition (Average) [8]: 3.31%
- % Inhibition (Average) [9]: 2.86%
- % Inhibition (Average) [10]: 0.68%
- % Inhibition (Average) [11]: 1.21%
- % Inhibition (Average) [12]: 2.83%
- % Inhibition (Average) [13]: 2.47%
- % Inhibition (Average) [14]: 1.6%
- % Inhibition (Average) [15]: 1.79%
- % Inhibition (Average) [16]: 1.54%
- % Inhibition (Average) [17]: 1.6%
- % Inhibition (Average) [18]: 2.79%
- % Inhibition (Average) [19]: 3.16%
- % Inhibition (Average) [20]: 2.65%
- % Inhibition (Average) [21]: 3.53%
- labeling of cells of colon cancer tissue [22]: strongly label
- labeling of cells of lung cancer tissue [23]: strongly label
- labeling of cells of normal tissue [24]: failed to label
- Net Gain (Average % Growth Inhibition) [25]: 7.49%
- Net Gain (Average % Growth Inhibition) [26]: 0.64%

B2: DR5 mAb 2: murine anti-human DR5 monoclonal antibody; VL SEQ ID NO:13, VH SEQ ID NO:18 (antibody, listed as Mus musculus, V domains shown)
VH: KVQLQQSGAELVKPGASVKLSCKASGYTFTEYILHWVKQKSGQGLEWIGWFYPGNNNIKYNEKFKDKATLTADKSSSTVYMELSRLTSEDSAVYFCARHEQGPGYFDYWGQGTTLTVSS
VL: DIVMTQSHKFMSTSVGDRVSITCKASQDVNTAVAWYQQKPGQSPKLLIYWASTRHTGVPDRFTGSGSGTDYTLTIKSVQAEDLTLYYCQQHYITPWTFGGGTKLEIK
modifications: (1)..(119) Anti-DR5 Antibody mAb 2 Heavy Chain Variable Region; (1)..(107) Anti-DR5 Antibody mAb 2 Light Chain Variable Region
- % Inhibition (Average) [1]: 3.89%
- % Inhibition (Average) [2]: 1.79%
- % Inhibition (Average) [3]: 1.92%
- % Inhibition (Average) [4]: 0.13%
- % Inhibition (Average) [5]: 2.84%
- % Inhibition (Average) [6]: 2.64%
- % Inhibition (Average) [7]: 2.06%
- % Inhibition (Average) [8]: 1.88%
- % Inhibition (Average) [9]: 2.68%
- % Inhibition (Average) [10]: 0.87%
- % Inhibition (Average) [11]: 0.99%
- % Inhibition (Average) [12]: 1.25%
- % Inhibition (Average) [13]: 3.98%
- % Inhibition (Average) [14]: 1.09%
- % Inhibition (Average) [15]: 4.47%
- % Inhibition (Average) [16]: 1.98%
- % Inhibition (Average) [17]: 0.67%
- % Inhibition (Average) [18]: 2.19%
- % Inhibition (Average) [19]: 2.02%
- % Inhibition (Average) [20]: 2.44%
- % Inhibition (Average) [21]: 1.76%
- labeling of cells of colon cancer tissue [22]: strongly label
- labeling of cells of lung cancer tissue [23]: strongly label
- labeling of cells of normal tissue [24]: failed to label
- Net Gain (Average % Growth Inhibition) [25]: 7.49%
- Net Gain (Average % Growth Inhibition) [26]: 2.33%
